According to the supplement of paper PMC9112550, “Optimization of the antimicrobial peptide Bac7 by deep mutational scanning” (BMC Biology, 2022):

Test system: Escherichia coli TOP10
Experiment: shrunken log2 fold change of peptide-encoding DNA abundance (4.5 h post-induction vs induction); higher = less antimicrobial activity (less host growth inhibition)
Settings: time post-induction: 4.5 h; library: site-saturation at positions 5, 18, 19, 20
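Note: peptides expressed intracellularly from a pBAD plasmid library in pooled LB shake-flask culture, induced with 0.3% L-arabinose, DNA abundance read by NGS, three biological replicates, DESeq2 with apeglm shrinkage.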

RRIRKRPPRLPRPRPRPCCQPRP
shrunken log2 fold change: -0.102

RRIRNRPPRLPRPRPRPVFQPRP
shrunken log2 fold change: -0.623

RRIRMRPPRLPRPRPRPCCKPRP
shrunken log2 fold change: -0.233

RRIRTRPPRLPRPRPRPEDYPRP
shrunken log2 fold change: -0.00822

RRIRQRPPRLPRPRPRPKYHPRP
shrunken log2 fold change: -0.171

RRIRSRPPRLPRPRPRPAATPRP
shrunken log2 fold change: 0.67

RRIRHRPPRLPRPRPRPCHTPRP
shrunken log2 fold change: -0.0375

RRIRCRPPRLPRPRPRPSITPRP
shrunken log2 fold change: -0.641

RRIRYRPPRLPRPRPRPRGWPRP
shrunken log2 fold change: 0.575

RRIRIRPPRLPRPRPRPEMVPRP
shrunken log2 fold change: -0.14

RRIRWRPPRLPRPRPRPFDMPRP
shrunken log2 fold change: -0.105

RRIRNRPPRLPRPRPRPTIYPRP
shrunken log2 fold change: -0.106

RRIRCRPPRLPRPRPRPQKEPRP
shrunken log2 fold change: -0.104

RRIRNRPPRLPRPRPRPGIYPRP
shrunken log2 fold change: -0.105

RRIRHRPPRLPRPRPRPICAPRP
shrunken log2 fold change: -0.0362

RRIRGRPPRLPRPRPRPCDKPRP
shrunken log2 fold change: 0.297

RRIRSRPPRLPRPRPRPVVQPRP
shrunken log2 fold change: -0.0812

RRIRSRPPRLPRPRPRPIWTPRP
shrunken log2 fold change: -0.254

RRIRLRPPRLPRPRPRPVVYPRP
shrunken log2 fold change: -0.058

RRIRVRPPRLPRPRPRPNTAPRP
shrunken log2 fold change: -0.147

RRIRQRPPRLPRPRPRPESAPRP
shrunken log2 fold change: 0.208

RRIRARPPRLPRPRPRPTKQPRP
shrunken log2 fold change: -0.148

RRIRKRPPRLPRPRPRPTIWPRP
shrunken log2 fold change: 0.319

RRIRSRPPRLPRPRPRPATNPRP
shrunken log2 fold change: 0.0897

RRIRVRPPRLPRPRPRPYGEPRP
shrunken log2 fold change: -0.204

RRIRFRPPRLPRPRPRPHFPPRP
shrunken log2 fold change: -0.212

RRIRERPPRLPRPRPRPLDHPRP
shrunken log2 fold change: -0.155

RRIRFRPPRLPRPRPRPPAYPRP
shrunken log2 fold change: 0.127

RRIRERPPRLPRPRPRPYMFPRP
shrunken log2 fold change: -0.736

RRIRQRPPRLPRPRPRPEQTPRP
shrunken log2 fold change: 0.0148

RRIRDRPPRLPRPRPRPNCSPRP
shrunken log2 fold change: 0.271

RRIRCRPPRLPRPRPRPEFKPRP
shrunken log2 fold change: 0.0244

RRIRTRPPRLPRPRPRPNGDPRP
shrunken log2 fold change: -0.0598

RRIRARPPRLPRPRPRPMMPPRP
shrunken log2 fold change: 0.307

RRIRCRPPRLPRPRPRPYRFPRP
shrunken log2 fold change: -0.746

RRIRSRPPRLPRPRPRPWSSPRP
shrunken log2 fold change: 0.0531

RRIRQRPPRLPRPRPRPCIGPRP
shrunken log2 fold change: -0.204

RRIRTRPPRLPRPRPRPMDEPRP
shrunken log2 fold change: -0.219

RRIRGRPPRLPRPRPRPWDQPRP
shrunken log2 fold change: 0.432

RRIRIRPPRLPRPRPRPWSLPRP
shrunken log2 fold change: -0.449

RRIRHRPPRLPRPRPRPPFIPRP
shrunken log2 fold change: -0.483

RRIRFRPPRLPRPRPRPIGFPRP
shrunken log2 fold change: -0.27

RRIRWRPPRLPRPRPRPTKHPRP
shrunken log2 fold change: -0.118

RRIRLRPPRLPRPRPRPIALPRP
shrunken log2 fold change: -0.0572

RRIRLRPPRLPRPRPRPWFVPRP
shrunken log2 fold change: -0.399

RRIRQRPPRLPRPRPRPLSAPRP
shrunken log2 fold change: 0.0436

RRIRVRPPRLPRPRPRPTPYPRP
shrunken log2 fold change: -0.0655

RRIRKRPPRLPRPRPRPQMPPRP
shrunken log2 fold change: 0.0482

RRIRIRPPRLPRPRPRPAMHPRP
shrunken log2 fold change: -0.221

RRIRPRPPRLPRPRPRPYRPPRP
shrunken log2 fold change: -0.257

RRIRWRPPRLPRPRPRPELGPRP
shrunken log2 fold change: -0.0384

RRIRIRPPRLPRPRPRPCMGPRP
shrunken log2 fold change: -1.07

RRIRMRPPRLPRPRPRPLAHPRP
shrunken log2 fold change: 0.0417

RRIRPRPPRLPRPRPRPSAEPRP
shrunken log2 fold change: 0.257

RRIRARPPRLPRPRPRPGDWPRP
shrunken log2 fold change: 0.8

RRIRRRPPRLPRPRPRPSMHPRP
shrunken log2 fold change: 0.324

RRIRYRPPRLPRPRPRPMGDPRP
shrunken log2 fold change: -0.0018

RRIRLRPPRLPRPRPRPQTYPRP
shrunken log2 fold change: -0.371

RRIRLRPPRLPRPRPRPGLIPRP
shrunken log2 fold change: 0.045

RRIRIRPPRLPRPRPRPVCWPRP
shrunken log2 fold change: 0.32

RRIRARPPRLPRPRPRPRITPRP
shrunken log2 fold change: 0.173

RRIRERPPRLPRPRPRPDDCPRP
shrunken log2 fold change: -0.0573

RRIRDRPPRLPRPRPRPRVAPRP
shrunken log2 fold change: 0.729

RRIRWRPPRLPRPRPRPTCWPRP
shrunken log2 fold change: 0.183

RRIRLRPPRLPRPRPRPYMHPRP
shrunken log2 fold change: -0.408

RRIRSRPPRLPRPRPRPEVHPRP
shrunken log2 fold change: 0.0346

RRIRARPPRLPRPRPRPSWYPRP
shrunken log2 fold change: -0.25

RRIRWRPPRLPRPRPRPNWQPRP
shrunken log2 fold change: -0.0101

RRIRYRPPRLPRPRPRPDSEPRP
shrunken log2 fold change: -0.0121

RRIRDRPPRLPRPRPRPMCLPRP
shrunken log2 fold change: 0.131

RRIRGRPPRLPRPRPRPICKPRP
shrunken log2 fold change: 0.616

RRIRLRPPRLPRPRPRPPGQPRP
shrunken log2 fold change: 0.625

RRIRVRPPRLPRPRPRPDMLPRP
shrunken log2 fold change: -0.024

RRIRFRPPRLPRPRPRPPVAPRP
shrunken log2 fold change: 0.987

RRIRLRPPRLPRPRPRPCRAPRP
shrunken log2 fold change: 0.146

RRIRERPPRLPRPRPRPLYDPRP
shrunken log2 fold change: -1.62

RRIRGRPPRLPRPRPRPLPHPRP
shrunken log2 fold change: 0.638

RRIRHRPPRLPRPRPRPNRGPRP
shrunken log2 fold change: -0.123

RRIRHRPPRLPRPRPRPSRDPRP
shrunken log2 fold change: 0.234

RRIRVRPPRLPRPRPRPAFTPRP
shrunken log2 fold change: -0.124

RRIRLRPPRLPRPRPRPKTGPRP
shrunken log2 fold change: 0.25

RRIRNRPPRLPRPRPRPNEMPRP
shrunken log2 fold change: -0.00174

RRIRIRPPRLPRPRPRPGTEPRP
shrunken log2 fold change: -0.0203

RRIRSRPPRLPRPRPRPTYIPRP
shrunken log2 fold change: -0.598

RRIRIRPPRLPRPRPRPRWAPRP
shrunken log2 fold change: 0.0908

RRIRLRPPRLPRPRPRPCTWPRP
shrunken log2 fold change: 0.0461

RRIRLRPPRLPRPRPRPIHSPRP
shrunken log2 fold change: -1.61

RRIRLRPPRLPRPRPRPIRHPRP
shrunken log2 fold change: -0.144

RRIRPRPPRLPRPRPRPDPLPRP
shrunken log2 fold change: -0.379

RRIRERPPRLPRPRPRPNEAPRP
shrunken log2 fold change: -0.0218

RRIRSRPPRLPRPRPRPAMRPRP
shrunken log2 fold change: 0.588

RRIRHRPPRLPRPRPRPSFWPRP
shrunken log2 fold change: 0.00023

RRIRLRPPRLPRPRPRPWQQPRP
shrunken log2 fold change: 0.00911

RRIRGRPPRLPRPRPRPELVPRP
shrunken log2 fold change: 1.58

RRIRNRPPRLPRPRPRPYIMPRP
shrunken log2 fold change: -0.741

RRIRMRPPRLPRPRPRPMARPRP
shrunken log2 fold change: 0.465

RRIRDRPPRLPRPRPRPWSAPRP
shrunken log2 fold change: -0.347

RRIRVRPPRLPRPRPRPVHGPRP
shrunken log2 fold change: -0.0285

RRIRVRPPRLPRPRPRPRNEPRP
shrunken log2 fold change: 0.115

RRIRWRPPRLPRPRPRPVRAPRP
shrunken log2 fold change: 0.636

RRIRVRPPRLPRPRPRPSDCPRP
shrunken log2 fold change: 0.234

RRIRVRPPRLPRPRPRPGLLPRP
shrunken log2 fold change: -0.146

RRIRLRPPRLPRPRPRPMLKPRP
shrunken log2 fold change: -0.295

RRIRDRPPRLPRPRPRPVWFPRP
shrunken log2 fold change: 1.26

RRIRSRPPRLPRPRPRPPLVPRP
shrunken log2 fold change: -0.0483

RRIRPRPPRLPRPRPRPHELPRP
shrunken log2 fold change: -0.0456

RRIRWRPPRLPRPRPRPFVTPRP
shrunken log2 fold change: -0.215

RRIRKRPPRLPRPRPRPTCIPRP
shrunken log2 fold change: -0.176

RRIRIRPPRLPRPRPRPFRCPRP
shrunken log2 fold change: -0.192

RRIRHRPPRLPRPRPRPMSPPRP
shrunken log2 fold change: 0.0565

RRIRVRPPRLPRPRPRPPQDPRP
shrunken log2 fold change: 0.27

RRIRPRPPRLPRPRPRPMQFPRP
shrunken log2 fold change: 0.231

RRIRNRPPRLPRPRPRPYCKPRP
shrunken log2 fold change: -0.258

RRIRHRPPRLPRPRPRPTCEPRP
shrunken log2 fold change: 0.012

RRIRMRPPRLPRPRPRPGHDPRP
shrunken log2 fold change: 0.0618

RRIRKRPPRLPRPRPRPLPQPRP
shrunken log2 fold change: 0.729

RRIRPRPPRLPRPRPRPFDLPRP
shrunken log2 fold change: -0.736

RRIRARPPRLPRPRPRPIIQPRP
shrunken log2 fold change: -0.206

RRIRKRPPRLPRPRPRPFTHPRP
shrunken log2 fold change: 0.0159

RRIRIRPPRLPRPRPRPTYIPRP
shrunken log2 fold change: -1.29

RRIRKRPPRLPRPRPRPCDSPRP
shrunken log2 fold change: -0.212

RRIRWRPPRLPRPRPRPKMPPRP
shrunken log2 fold change: 1.71

RRIRWRPPRLPRPRPRPPNGPRP
shrunken log2 fold change: 0.034

RRIRVRPPRLPRPRPRPCMMPRP
shrunken log2 fold change: -0.33

RRIRIRPPRLPRPRPRPFHLPRP
shrunken log2 fold change: -0.0356
